Values of other authors in publication PMC4457300.
pKd: −log10 of the molar value.

Target: MLL MBM1 4-15 (Homo sapiens) (UniProt Q03164)

pKd: 7.25
Substance: menin (from UniProt O00255)
